T1: recombinant cynomolgus monkey TSLP (cynomolgus monkey, UniProt Q969D9 29-159 (human entry), limits assumed)
T1 chain: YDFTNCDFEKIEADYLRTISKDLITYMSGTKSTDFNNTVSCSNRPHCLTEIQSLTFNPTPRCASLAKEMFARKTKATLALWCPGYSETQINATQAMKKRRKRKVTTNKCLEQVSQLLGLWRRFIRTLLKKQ

T2: recombinant mouse TSLP (mouse, UniProt Q9JIE6 20-140)
T2 construct: Bought from R&D Systems (MW 15 kDa); also called mTSLP; murine TSLP
T2 sequence: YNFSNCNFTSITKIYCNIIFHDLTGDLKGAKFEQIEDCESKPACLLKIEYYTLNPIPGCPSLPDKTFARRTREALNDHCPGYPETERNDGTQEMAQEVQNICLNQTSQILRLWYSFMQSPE


What was measured:
[1] = target: T3, recombinant human TSLP (human, UniProt Q969D9 29-159); assay: cell-based or functional assay
[2] = target: naturally-secreted human TSLP (human, UniProt Q969D9 29-159); assay: cell-based or functional assay
[3] = target: T1, recombinant cynomolgus monkey TSLP; assay: cell-based or functional assay
[4] = target: T3, recombinant human TSLP; assay: solution equilibrium titration (SET), MSD electrochemiluminescence
Experimental: (§1) The Fab was incubated at a constant concentration with serial dilutions of the respective antigens. The binding affinity was extracted from a competition curve which was generated by plotting the read-out of the concentration of unbound antibody against the applied antigen concentration.
(§2) A 384-well MSD array MTP was coated o/n at 4° C. with 30 μl/well of hsTSLP (produced in E. coli) diluted in PBS at 5 μg/ml, then washed three times with 70 μl/well of wash buffer and blocked with 50 μl/well of blocking buffer for 1 h at RT on a shaker. After washing, a volume of 30 μl/well of the equilibrated antigen-Fab mix was transferred from the polypropylene MTP to the coated MSD plate and incubated for 20 min at RT.

[5] = target: T2, recombinant mouse TSLP; assay: Biacore SPR, Fab1 captured on a human Fab binder CM5 chip, TSLP injected
Experimental: Human Fab binder was immobilized on all four flow cells of a CM5 chip using a Human Fab Capture kit following manufacturer's instructions. A contact time of 360 seconds at a flow rate of 10 uL/min was specified. The temperature of the sample compartment was 10° C. and analysis temperature was 25° C.; prior to immobilization, the CM5 chip was primed with HBS-EP+ and normalized with BIAnormalizing solution. 375 uL of 20 ug/mL human Fab binder was prepared by combining 15 uL 0.5 mg/mL stock with 360 uL pH5 immobilization buffer (both provided in Human Fab Capture kit).
The temperature of the sample compartment was 10° C. and analysis temperature was 25° C. […] Regeneration of the Fab binder surface was achieved after each cycle by injecting 10 mM glycine-HCl, pH 2.0 for 60 s at 10 uL/min, followed by an extra wash with HBS-EP+ buffer. The temperature of the sample compartment was 10° C. and analysis temperature was 25° C.

[6] = target: T4, human TSLP (HEK) (human, UniProt Q969D9 29-159); assay: solution equilibrium titration (SET), antigen titrated in solution, free Fab read on an E. coli hsTSLP-coated MSD plate, mean of 3 experiments ± SD
T4 construct: also called human TSLP (produced in HEK cells)
Experimental: as §1, §2

[7] = target: T1, recombinant cynomolgus monkey TSLP; assay: as above
Experimental: as §1, §2

[8] = target: T5, His6-PreSc-TSLP (recombinant human TSLP used in crystallography) (human); assay: complex purified by size-exclusion chromatography and solved by X-ray crystallography
T5 construct: also called TSLP (chain T)
T5 sequence (chain, as listed by the source limits assumed): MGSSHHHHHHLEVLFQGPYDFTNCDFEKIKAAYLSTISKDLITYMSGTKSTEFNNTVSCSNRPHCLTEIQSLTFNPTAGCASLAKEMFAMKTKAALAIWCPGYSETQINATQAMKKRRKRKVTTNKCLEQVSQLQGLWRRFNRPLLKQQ
Experimental: The peak fraction was concentrated to 9.2 mg/ml by ultrafiltration and submitted to crystallization screening.

Binder | IC50, TSLP-induced TARC secretion from human PBMC [1] | IC50, luciferase reporter gene assay (Ba/F3 cells with hTSLPR, hIL7Rα and Stat5-luciferase) [1] | mean IC50 (n=3), TSLP-induced TARC secretion from human PBMC [1] | mean IC50 (n=3), luciferase reporter gene assay [1] | IC50, luciferase reporter gene assay (Ba/F3 cells with hTSLPR, hIL7Rα and Stat5-luciferase) [2] | IC50, TSLP-induced MDC secretion from cyno PBMC [3] | IC50, TSLP-induced TARC secretion from human PBMC [3] | IC50, luciferase reporter gene assay (Ba/F3 cells with hTSLPR, hIL7Rα and Stat5-luciferase) [3] | mean IC50 (n=3), TSLP-induced MDC secretion from cyno PBMC [3] | mean IC50 (n=3), TSLP-induced TARC secretion from human PBMC [3] | mean IC50 (n=3), luciferase reporter gene assay [3] | Kd [4] | binding result [5] | Kd [6] | Kd [7] | binding result [8]
anti-TSLP Fab1 (Fab, V domains shown, also called anti-human TSLP Fab1; Fab fragment of MOR014824 (Mab1)) VH: EVQLVESGGGLVKPGGSLRLSCAASGFTFSDYWMHWVRQAPGKGLEWVGHIKSKTDAGTTDYAAPVKGRFTISRDDSKNTLYLQMNSLKTEDTAVYYCAREIYYYAFDSWGQGTLVTVSS VL: SYELTQPLSVSVALGQTARITCSGDNIGSKYVHWYQQKPGQAPVLVIYGDNERPSGIPERFSGSNSGNTATLTISRAQAGDEADYYCQAADWVDFYVFGGGTKLTVLG | 0.0203 nM | 0.0154 nM | 0.0197 nM | 0.0153 nM | 0.0171 nM | 0.0555 nM | 0.0113 nM | 0.0108 nM | 0.0251 nM | 0.0111 nM | 0.0095 nM | 0.006 nM | no binding (tested: 10 nM highest antigen concentration) | 0.005 nM | 0.0014 nM | 
anti-TSLP Fab1 generated by papain digestion of anti-TSLP mAb1 (crystallography sample) (Fab, V domains shown, pyroglutamic acid residue at the amino-terminus, also called the Fab) VH: EVQLVESGGGLVKPGGSLRLSCAASGFTFSDYWMHWVRQAPGKGLEWVGHIKSKTDAGTTDYAAPVKGRFTISRDDSKNTLYLQMNSLKTEDTAVYYCAREIYYYAFDSWGQGTLVTVSS VL: SYELTQPLSVSVALGQTARITCSGDNIGSKYVHWYQQKPGQAPVLVIYGDNERPSGIPERFSGSNSGNTATLTISRAQAGDEADYYCQAADWVDFYVFGGGTKLTVLG |  |  |  |  |  |  |  |  |  |  |  |  |  |  |  | binds

— patent publication US20200325218A1 (Novartis, published 2020)
